The text below walks through data of US8183228B2, “Anticoagulant antithrombotic dual inhibitors comprising a biotin label” (MSD OSS B.V. Netherlands, priority 2005, dated 2012).

Where a name gives a salt, the structure may show the parent alone. Read-outs that look alike come from different tables or passages of the source.

The nature of data set [1]: Pharmacokinetics - neutralization experiment with avidin i.v. in rat. Format: in vivo. The settings on record: for level at time molar at 24 h: plasma, sc, before avidin, read-out: Plasma level T = 24 h; for level at time molar at 24 h / Plasma level T = 26 h / % reduction of plasma concentration: s.c. 500 nmol/kg; for Plasma level T = 26 h: 2 hours after avidin 10 mg/kg i.v. at t = 24 h; for % reduction of plasma concentration: within 2 hours after avidin 10 mg/kg i.v. at t = 24 h, sodium salt. How it is done: 3.2 Pharmacokinetics—Neutralization Experiment:
Rats were treated with compound 10, 12, or 27 at a dose of 100 nmol/kg s.c. At t=1 h, a blood sample was taken and 10 mg/kg of Avidin (from egg white, Sigma) was administered i.v. to the rats treated with compound 10 or 12. Blood was sampled at 0.5-1-3-6 and 23 hours subsequently. The blood was treated as described in the pharmacokinetic experiment and the concentration of the samples was determined by measuring the (residual) anti-Xa activity. (FIG. 8)
In a separate experiment compound 10, 17 or 26 was administered at a dose of 500 nmol/kg s.c. after which blood was collected at 24 hours. Then 10 mg/kg avidin was administered intravenously and blood was collected at 25 and 26 hours. (FIG. 9)

The test system of a further data set is washed human platelets. The data set is described as follows: Inhibition of human platelet aggregation induced by TRAP (washed platelets). The class given is cell-based. The procedure: This aggregation can be determined by measuring the optical density of the WPL. The in vitro test described here is used to analyze the activity of a test compound to inhibit TRAP-induced aggregation of human platelets.
Between two measurements, the plate is shaking for 40 seconds at 1,000 rpm.

The test system of data set [2] is guinea pig platelet aggregation. The data set is described as follows: In vitro neutralisation of inhibition of guinea pig platelet aggregation by avidin. The class given is cell-based. As to conditions: avidin added to ADP-induced guinea pig platelet aggregation assay. How it is done: 2.1 In Vitro Neutralization of the Antithrombotic Activity A. In Vitro Neutralisation of Inhibition of Platelet Aggregation (Pre-Incubation of Compound with Avidin)
As performed in above described protocol for ADP-induced platelet aggregation. […] Before inducing the guinea pig platelet aggregation by adding ADP, compound and avidin (from egg white, Sigma) in different concentrations were pre-incubated for 2 minutes at room temperature (FIGS. 1 and 2).
B. In Vitro Neutralisation of Inhibition of Platelet Aggregation
(After Delayed Addition of Avidin)
(§1) As performed in above described protocol for ADP-induced platelet aggregation. […] After 7 minutes the detection of platelet aggregation was interrupted and avidin (from egg white, Sigma) in different concentrations was added at t=9 min. Within 1 minute the detection of the platelet aggregation was resumed (FIGS. 3 and 4).

Data set [3] is described as follows: Pharmacokinetics after s.c. administration in rat (plasma anti-Xa activity). Format: in vivo. As to conditions: for Tmax / AUC(0-inf) / Cmax / half-life: male, Wistar, plasma, sc; for half-life: read-out: T½ eli (converted); for pharmacokinetic behavior in rats (comparison): within the variability of the experiment. How it is done:
The pharmacokinetic properties of compounds 10, 12, 17 and 27 were studied in male Wistar rats of 300-400 gr. The rats were anaesthetized by inhalation of a mixture of O2N2O/isoflurane, after which the right jugular vein was cannulated. The next day rats were treated s.c. with doses of 100 or 500 nmol/kg. After s.c. administration, blood was sampled at several time intervals. Then the blood was centrifuged after which the plasma was siphoned off and stored at −20° C. until use. The concentration of the tested compound was measured amidolytically with S2222 (Chromogenix, Chromogenics Ltd, Molndal, Sweden) by determination of the anti-Xa activity based on the method of Teien and Lie in the obtained plasma samples against a calibration curve which was made of the stock solution of the tested compound itself. (Teien A N, Lie M. Evaluation of an amidolytic heparin assay method increased sensitivity by adding purified antithrombin III. Thromb. Res. 1977, 10: 399-410). The concentration in the samples was expressed in nmol/mL and the kinetic parameters were calculated with the noncompartment model of WinNonlin. (FIGS. 6 and 7)

Data set [4] in a line: Bleeding in guinea pigs and its stop by avidin. The class given is in vivo, guinea pig. The settings on record: guinea pigs.
Data set [5] deals with human platelet aggregation. The data set is described as follows: In vitro neutralisation of inhibition of human platelet aggregation by avidin. Format: cell-based. As to conditions: avidin added 9 minutes after ADP-induced aggregation, human platelets. How it is done: as §1
In FIG. 5, the effect of avidin on the inhibition of human platelet aggregation by compound 17 is shown (addition of avidin 9 minutes after ADP-induced platelet aggregation).

[6] abbreviates: s.c. 100 nmol/kg, avidin 10 mg/kg i.v.

Broadly, the IC50 is the point on the concentration scale where inhibition reaches its midpoint. As usually defined, the Tmax is the time from dosing to the highest level. As a reminder, the AUC(0-inf) is the area under the concentration-time curve extrapolated to infinity. Lower therefore signals less exposure. As a reminder, the Cmax is the peak of the concentration-time curve. Turning to `CO[C@H]1O[C@H](COS(=O)(=O)O)[C@@H](O[C@@H]2O[C@@H](C(=O)O)[C@@H](O[C@H]3O[C@H](COS(=O)(=O)O)[C@@H](O[C@@H]4O[C@H](C(=O)O)[C@@H](O[C@H]5O[C@H](COS(=O)(=O)O)[C@@H](OCCOCCOCCOCCNC(=O)[C@H](CCCCNC(=O)CCCC[C@@H]6SC[C@@H]7NC(=O)N[C@@H]76)NC(=O)COCCOCCOCCOCCNC(=O)c6cccc(S(=O)(=O)N[C@@H](Cc7ccc(OCCCCC8CCNCC8)cc7)C(=O)O)c6)[C@H](OC)[C@H]5OC)[C@H](OC)[C@H]4OC)[C@H](OS(=O)(=O)O)[C@H]3OS(=O)(=O)O)[C@H](OC)[C@H]2OC)[C@H](OS(=O)(=O)O)[C@H]1OS(=O)(=O)O` [Compound 10, sodium salt], in data set [1], the level at time molar at 24 h is 0.733 ± 0.033 µM, the “Plasma level T = 26 h” value was 0.185 ± 0.045 µM and the “% reduction of plasma concentration” value turned out to be 75%. Further, in data set [1] (setting [6]), the “Cl in comparison to compound 12” value is “strongly increased”, the “neutralization by avidin of (residual) anti-Xa activity / pharmacokinetic behavior” value is “can be neutralized”, the “overall AUCinf in comparison to compound 12” value is on record as “strongly reduced” and the “overall T1/2 eli in comparison to compound 12” value was “strongly reduced”. The molecule further gave an IC50 in the data set with washed human platelets of 0.072 µM. For the same molecule, the “effect of avidin on inhibition of guinea pig platelet aggregation (neutralisation of anti-GPIIbIIIa activity)” value in data set [2] was “immediate restoration of platelet aggregation”. In data set [3] (500 nmol/kg, mean ± s.e.m.), this molecule had a Cl of 0.11 ± 0.005 mL/min/kg, a Vz of 0.103 ± 0.009 L/kg, an AUC(0-inf) of 76.2 ± 2.8 µM·h and a Cmax of 4.5 ± 0.4 µM. The half-life in data set [3] (500 nmol/kg, mean ± s.e.m.) was 10.7 ± 1.5 h. Also, in data set [3] (500 nmol/kg), the Tmax worked out at 1.3 h. The “pharmacokinetic behavior in rats (comparison)” value in data set [3] was “same pharmacokinetic behavior”.
As to `CO[C@H]1O[C@H](COS(=O)(=O)O)[C@@H](O[C@@H]2O[C@@H](C(=O)O)[C@@H](O[C@H]3O[C@H](COS(=O)(=O)O)[C@@H](O[C@@H]4O[C@H](C(=O)O)[C@@H](O[C@H]5O[C@H](COS(=O)(=O)O)[C@@H](OCCOCCOCCOCCNC(=O)COCCOCCOCCOCCNC(=O)c6cccc(S(=O)(=O)N[C@@H](Cc7ccc(OCCCCC8CCNCC8)cc7)C(=O)O)c6)[C@H](OC)[C@H]5OC)[C@H](OC)[C@H]4OC)[C@H](OS(=O)(=O)O)[C@H]3OS(=O)(=O)O)[C@H](OC)[C@H]2OC)[C@H](OS(=O)(=O)O)[C@H]1OS(=O)(=O)O` [Compound 12, sodium salt, reference compound], the “neutralization by avidin of (residual) anti-Xa activity / pharmacokinetic behavior” value in data set [1] (setting [6]) was “not affected”. The IC50 in the data set with washed human platelets is 0.065 µM. Also, in data set [2], the “effect of avidin on inhibition of guinea pig platelet aggregation (neutralisation of anti-GPIIbIIIa activity)” value is given as “cannot be restored”. For the same molecule, the Tmax in data set [3] (100 nmol/kg) was 1.3 h. Besides, in data set [3] (100 nmol/kg, mean ± s.e.m.), the AUC(0-inf) amounted to 16.8 ± 0.5 µM·h, the Cmax was found to be 1.26 ± 0.02 µM and the half-life is 9.8 ± 0.4 h. Also, in data set [3], the “pharmacokinetic behavior in rats (comparison)” value was “same pharmacokinetic behavior”.
Take `CO[C@H]1O[C@H](COS(=O)(=O)O)[C@@H](O[C@@H]2O[C@@H](C(=O)O)[C@@H](O[C@H]3O[C@H](COS(=O)(=O)O)[C@@H](O[C@@H]4O[C@H](C(=O)O)[C@@H](O[C@H]5O[C@H](COS(=O)(=O)O)[C@@H](OCCOCCOCCOCCNC(=O)[C@H](CCCCNC(=O)C[C@H](NC(=O)CCCC[C@@H]6SC[C@@H]7NC(=O)N[C@@H]76)C(=O)O)NC(=O)COCCOCCOCCOCCNC(=O)c6cccc(S(=O)(=O)N[C@@H](Cc7ccc(OCCCCC8CCNCC8)cc7)C(=O)O)c6)[C@H](OC)[C@H]5OC)[C@H](OC)[C@H]4OC)[C@H](OS(=O)(=O)O)[C@H]3OS(=O)(=O)O)[C@H](OC)[C@H]2OC)[C@H](OS(=O)(=O)O)[C@H]1OS(=O)(=O)O` [Compound 17, sodium salt]: in data set [1], the level at time molar at 24 h was 0.666 ± 0.093 µM, the “Plasma level T = 26 h” value turned out to be 0.112 ± 0.035 µM and the “% reduction of plasma concentration” value amounted to 83%. For the same molecule, the “bleeding induced after administration” value in data set [4] was “dose-dependent bleeding”. The “effect of avidin on induced bleeding” value in data set [4] (avidin i.v. 10 mg/kg) is listed as “stopped immediately”. In addition, the IC50 in the data set with washed human platelets came to 0.074 µM. In addition, in data set [5], the “effect of avidin on inhibition of human platelet aggregation” value is “full restoration of human platelet aggregation”. Moreover, in data set [3] (100 nmol/kg), the Tmax was found to be 1.7 h. Further, in data set [3] (100 nmol/kg, mean ± s.e.m.), the AUC(0-inf) was 15.9 ± 0.9 µM·h, the maximum concentration (Cmax) amounted to 1.24 ± 0.01 µM and the half-life was 10.4 ± 0.5 h. The “pharmacokinetic behavior in rats (comparison)” value in data set [3] is given as “same pharmacokinetic behavior”.
